doi:10.1101/2022.09.14.507916

Target: octameric HlgAB pore complex of γ-hemolysin (four HlgA and four HlgB, alternating) (Staphylococcus aureus (strain Newman))
Test: cryo-EM structure

octameric HlgAB pore complex of γ-hemolysin (four HlgA and four HlgB, alternating)
stoichiometry N: 6
